Consider three molecules from article PMC5942852 (PLoS Computational Biology, 2018).

Experiment [1] addresses T1, Bee Hyaluronidase (Apis mellifera (honeybee)).
T1 construct: also called the main allergen in bee venom
The experiment is described as follows: SPR; ProteOn XPR36 (Bio-Rad), GLC chip; IgG captured on amine-coupled anti-human capture antibody (Human Antibody Capture Kit), antigen as analyte; 1x HBS-EP+ pH 7.4 with BSA 1 mg/ml; equilibrium or kinetic Langmuir model. As to conditions: both partners purified.

Experiment [2] has as its target T1, Bee Hyaluronidase. The experiment in a line: SPR; Biacore 4000, CM5 chip; IgG captured on amine-coupled anti-human capture antibody (Human Antibody Capture Kit), antigen as analyte; 1x HBS-EP+ pH 7.4 with BSA 1 mg/ml; equilibrium or kinetic Langmuir model; apparent KD. To be noted: both partners purified.

T1 sequence (heavy, as listed by the source): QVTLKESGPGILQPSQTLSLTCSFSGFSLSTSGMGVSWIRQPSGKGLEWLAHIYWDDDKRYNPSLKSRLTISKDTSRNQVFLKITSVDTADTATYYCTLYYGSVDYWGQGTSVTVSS

B1: WT 2J88 antibody (antibody, V domains shown)
VH: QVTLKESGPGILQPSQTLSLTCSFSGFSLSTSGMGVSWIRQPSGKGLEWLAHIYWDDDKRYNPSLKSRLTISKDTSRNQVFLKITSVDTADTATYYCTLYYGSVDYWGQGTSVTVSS
VL: DIQMTQSPASLSASVGETVTITCRASENIYSYLTWYQQKQGKSPQLLVYNAKTLAEGVPSRFSGSGSGTQFSLKISSLQPEDFGNYYCQHHYGTRTFGGGTRLEIK
notes: heavy-chain variable domain of the antibody in PDB 2J88; human IgG1 heavy constant region, from the vector pFUSEss-CHIg-hG1; light-chain variable domain of the antibody in PDB 2J88; human kappa constant region, from the vector pFUSEss-CLIg-hk; the abstract says one lambda and one kappa antibody were tested; Expressed as IgG (human IgG1 constant regions from pFUSE vectors) with the variable …
The molecule B1 gave a Kd in experiment [1] of 9.2 nM.

B2: L14_7 (antibody, V domains shown)
VH: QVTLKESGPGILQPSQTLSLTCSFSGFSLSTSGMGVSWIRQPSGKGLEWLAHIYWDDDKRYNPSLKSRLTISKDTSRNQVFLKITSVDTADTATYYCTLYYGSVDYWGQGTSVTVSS
VL: DIQMTQSPASLSASVGETVTITCRSSRDIKDYITWYQQKQGKSPQLLVYNAKTLAEGVPSRFSGSGSGTEFSLKISSLQPEDFGNYYCQHHYGTRTFGGGTRLEIK
notes: as the heavy-chain variable domain of m1 (PDB 2J88); human IgG1 heavy constant region, from the vector pFUSEss-CHIg-hG1; as the light-chain variable domain of m1 (PDB 2J88) with a designed L1 (cluster L1-11-2, six amino acid differences) and one difference in the L4 (DE) loop; human kappa constant region, from the vector pFUSEss-CLIg-hk; kappa inferred as for m1; IgG; Computational design (RAbD) …
In experiment [1], B2 returned a Kd of 0.77 nM.

B3: WT 2J88 antibody Y38K (antibody, V domains shown)
VH: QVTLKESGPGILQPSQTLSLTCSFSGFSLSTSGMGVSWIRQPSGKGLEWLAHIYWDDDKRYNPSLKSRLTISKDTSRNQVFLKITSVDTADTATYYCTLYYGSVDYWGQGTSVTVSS
VL: DIQMTQSPASLSASVGETVTITCRASENIKSYLTWYQQKQGKSPQLLVYNAKTLAEGVPSRFSGSGSGTQFSLKISSLQPEDFGNYYCQHHYGTRTFGGGTRLEIK
notes: as the heavy-chain variable domain of m1 (PDB 2J88); human IgG1 heavy constant region, from the vector pFUSEss-CHIg-hG1; as the light-chain variable domain of m1 (PDB 2J88) with Y38K in L1; human kappa constant region, from the vector pFUSEss-CLIg-hk; kappa inferred as for m1; IgG; Position 38 is most likely AHo numbering; source: 293F cells, transfected (pFUSE vectors), purified (rProtein A …)
With B3, the Kd in experiment [2] was 4.3 nM.
